# Assay results as given in US20240279601A1, “METHODS OF GENERATING SACRAL NEURAL CREST LINEAGES AND USES THEREOF” (MEMORIAL SLOAN-KETTERING CANCER CENTER, priority 2021, published 2024).
# Ends that are not written are not given here.
# B1: GDF11: growth differentiation factor 11 or bone morphogenetic protein 11, a TGFβ family protein encoded by the GDF11 gene (protein, UniProt O95390 299-407, looked up)
# Growth/differentiation factor …: NLGLDCDEHSSESRCCRYPLTVDFEAFGWDWIIAPKRYKANYCSGQCEYMFMQKYPHTHLVQQANPRGSAGPCCTPTKMSPINMLYFNDKQQIIYGKIPGMVVDRCGCS
# B2: GDNF: glial cell line derived neurotrophic factor (Peprotech, 450-10) (protein, UniProt P39905 78-211, looked up)
# Glial cell line-derived …: SPDKQMAVLPRRERNRQAAAANPENSRGKGRRGQRGKNRGCVLTAIHLNVTDLGLGYETKEELIFRYCSGSCDAAETTYDKILKNLSRNRRLVSDKVGQACCRPIAFDDDLSFLDDNLVYHILRKHSAKRCGCI
# How the values were obtained:
# vagal NC = assay: Migration (surface area) of NC cells in response to growth factors; format: cell-based, human; conditions: 0.1x, 1x, 10x of standard concentration (100 nM EDN3, 25 ng/ml GDNF)
# Procedure: (§1) Fluorescence image of cells and their migration at different time points: 0 hour (upper panel), 24 hours (middle panel), 48 hours (bottom panel). Scale bars, 50 pm. […] Scale bars, 500 pm. […] N=6 biological replicates. FIGS. 32D and 32E show surface area VNC or SNC cells in response to different growth factors. 1 equates to standard concentration (100 nM and 25 ng/ml for EDN3 and GDN F respectively), 0.1 equates to 1/10 of standard concentration and 10 equates to 10 times higher than the standard concentration. Surface area is quantified by ImageJ. N=4 biological replicates. […] The images are taken at different time points after transplantation: 1 Hour (left panel), 2 weeks (middle panel), 4 weeks (right panel). […] Data are present as Mean±SEM; ns: not significant P>0.05; *P≤0.05; **P≤0.01; ***P≤0.001; ****P≤0.0001
# (§2) Migration and co-differentiation assays. Transwell assay: to test capacity of NC cells for invasion, we used the CytoSelect 24-Well Cell Invasion Assay, Basement (Cell Biolabs). We plated 200K cells per chamber in neural spheroids medium and added 500 μL of neural spheroid medium containing 10% fetal bovine serum to the lower well of the invasion plate and incubated the plate for 48 h at 37° C. in 5% CO2 atmosphere. Cells that crossed through the invasion chamber were stained with the Cell Stain Solution provided with the kit (Cell Biolabs) and examined under the microscope. The stained cells were then lysed and measured by plate reader for quantification. Migration assay: vagal or sacral neural spheroids were generated as described in enteric neuron differentiation section. Those spheroids were plated down on a 2D PO/LM/FN coated plated for assessing surface migration or embedded in […]) Matrigel for assessing migration within a Matrigel pellet. Pictures were taken at sequential time points post plating to trace the migration process. Scratch assay: vagal or sacral NC cells were plated on PO/LM/FN coated 24 well plates at density of 100×10^3 cells per cm^2. After 24 h, the culture lawn is scratched manually using a pipette tip. Live images are taken at different time points after the scratch was made to trace the migration.
# sacral NC = assay: as above; format: cell-based, human
# Procedure: as §1, §2
# rodent GSK3β homologs = conditions: against rodent GSK3β homologs; cited from earlier work
# hPSCs [1] = assay: HOX and NC gene expression (qRT-PCR) during neural crest differentiation of hPSCs; format: cell-based, human; conditions: for expression of HOX regulatory genes (CDX1, CDX2, CDX4): combined treatment with CHIR99021 and FGF2; for expression of posterior genes HoxB7, HoxC9, HoxA10 and CDX4: different concentrations of FGF2 and CHIR99021 together
# Procedure: NC differentiation. The basic NC differentiation protocols used are based on previous works (Fattahi et al., Nature 531, 105-109, 2016; Tchieu et al., Cell Stem Cell 21, 399-410 e397, 2017). Briefly, matrigel (Thermo Fisher, A1413201) was diluted at 1:100 ratio in DMEMF-12 (Thermo Fisher, 21331020) and plates were coated with the diluted matrigel overnight at 4° C. For inducing differentiation, hESCs or iPSCs were dissociated at 70%-80% confluence using EDTA dissociation buffer and replated as a single cell suspension on matrigel-coated 24-well plates at a density of 100K cells/cm^2 in E6 medium containing 10 μM ROCK-inhibitor (Y-27632; R&D, 1254). The cells were kept in E6 medium (Thermo Fisher, A1516401)+Y-27632 overnight. The next day, the medium was switched to NC induction medium. For cranial differentiation, the cells were kept in E6 medium containing 10 μM SB431542 (R&D, 1614), […] (R&D, 314-BP), and 0.6 μM CHIR (R&D, 4423) for the first 2 days and then switched to E6 medium containing 10 μM SB431542 and 1.5 μM CHIR for 10 days. For vagal NC the same conditions were used with an additional 1 μM RA (Sigma, R2625) added to the medium starting from D6. To establish the sacral NC protocol, the cranial NC protocol was modified with varying concentrations of FGF2 (R&D, 233-FB/CF), CHIR and GDF11 (Peprotech, 120-11), added at different time points as detailed in the results section. For the generation of melanocytes, 100 nM EDN3 (American Peptide company, 88-5-10B) was added to the sacral NC protocol from day 14 to day 20. In experiments testing the RA hypothesis, the sacral NC protocol was modified using either 1 μM RA (Sigma, R2625) or 100 nM AGN (Tocris, 5758) as detailed in the experimental design section.
# RNA extraction and RT-qPCR. RNA was prepared from samples collected with the Zymo Direct-zol Kit and extracted using the Direct-zol RNA MiniPrep kit. cDNA was generated using the iScript Reverse Transcription Supermix for RT-qPCR. For qPCR analysis, primers were obtained from QIAGEN or IDT and the reactions were performed following manufacturers' instructions using SsoFast EvaGreen® Supermix. The Assays were run on BioRad CFX384 Real-Time PCR machine. Results were normalized to GAPDH housekeeping genes.
# hPSCs [2] = assay: RNA-seq and ATAC-seq of NC differentiation with or without GDF11; format: cell-based, human
# Procedure: RNA sequencing (RNA-seq). Cells were disassociated with Accutase for 20 minutes at 37° C. The cells were collected into 15 mL falcon tubes and DMEMF-12 containing 2% FBS was added to neutralize the enzyme. The cells were spun down and washed with PBS twice. The cells were spun down again in 1.5 mL Eppendorf tube and resuspended in 500 μL TRIzol (ThermoFisher catalog #15596018) and stored at −80° C. When all data points were collected, the samples underwent RNA extraction and RNA-seq as performed by the IGO core at MSKCC. Briefly, phase separation in cells lysed in 1 mL TRIzol Reagent was induced with 200 μL chloroform and RNA was extracted from the aqueous phase using the miRNeasy Mini Kit (Qiagen catalog #217004) on the QIAcube Connect (Qiagen) according to the manufacturer's protocol with 350 μL input. Samples were eluted in 15 μL RNase-free water. After RiboGreen quantification and quality control by Agilent BioAnalyzer, 500 ng of total RNA with RIN values of 9.6-10 underwent polyA selection and TruSeq library preparation according to instructions provided by Illumina (TruSeq Stranded mRNA LT Kit, catalog #RS-122-2102), with 8 cycles of PCR. Samples were barcoded and run on a HiSeq 4000 in a PE100 run, using the HiSeq 3000/4000 SBS Kit (Illumina). An average of 53 million paired reads was generated per sample and the percent of mRNA bases averaged 85%.
# RNA-seq bioinformatics. STAR aligner (Dobin et al., Bioinformatics 29, 15-21, 2013) was used to map reads to the human genome (GRCh37). The 2-pass mapping method (Engström et al., Nature methods 10, 1185-1191, 2013) was used, in which the reads are mapped twice. SAM files were processed and converted to BAM format using PICARD tools and then HTseq was used to compute the expression count matrix from the mapped reads. DESeq2 (Love et al., Genome Biology 15, 550, 2014) was used to normalize the raw counts (Median of Ratios method) and perform differential gene expression analysis. Data are presented on a gene-by-gene basis as normalized counts or after carrying out a variance-stabilizing transformation followed by PCA analysis.
# ATAC sequencing (ATAC-seq). Cells were disassociated with Accutase for 20 minutes at 37° C. The cells were collected into 15 mL falcon tubes and DMEMF-12 containing 2% FBS was added to neutralize the enzyme. The cells were spun down and washed with PBS twice. The cells were spun again in a 1.5 mL Eppendorf tube and resuspended in 500 μL stem cell banker cell freezing buffer and stored at liquid nitrogen tank. When all data points were collected, the samples were sent to IGO core. ATAC-seq was performed by IGO core at MSKCC. Profiling of chromatin was performed by ATAC-Seq as described in Buenrostro et al., Nat Methods 10, 1213-1218, 2013. Briefly, 50,000 viably frozen neural crest cells were washed in cold PBS and lysed. The transposition reaction was carried out using TDEI Tagment DNA Enzyme (Illumina catalog #20034198) incubated at 37° C. for 30 minutes. The DNA was cleaned with the MinElute PCR Purification Kit (QIAGEN catalog #28004) and material was amplified for 5 cycles using NEBNext High-Fidelity 2×PCR Master Mix (New England Biolabs catalog #M0541L). After evaluation by real-time PCR, 7-10 additional PCR cycles were done. The final product was cleaned by aMPure XP beads (Beckman Coulter catalog #A63882) at a 1× ratio, and size selection was performed at a 0.5× ratio. […] An average of 42 million paired reads were generated per sample. […]
# [3] = low to medium level of EDN3, GDNF
# [4] = RNA seq, day 3, following GDF11 treatment
# [5] = early exposure to GDF11 in combination with FGF2 and CHIR
molecule,measurement,setting,value
"EDN3: growth factor EDN3 (American Peptide company, 88-5-10B) (CTCFTYKDKECVYYCHLDIIW; ends and bridges not checked; cysteine pairing not given here; UniProt P14138 97-117, looked up)",vagal NC migration,vagal NC,highly promoted
same,sacral NC migration,sacral NC; high EDN3 concentration,suppressed
same,sacral NC migration,sacral NC; [3],promoted
"Cc1c[nH]c(-c2cnc(NCCNc3ccc(C#N)cn3)nc2-c2ccc(Cl)cc2Cl)n1 [CHIR99021, 6-(2-(4-(2,4-dichlorophenyl)-5-(4-methyl-1H-imidazol-2-yl)pyrimidin-2-ylamino)ethylamino)nicotinonitrile, reference compound]",IC50 values,rodent GSK3β homologs,nanomolar
same,"expression of HOX regulatory genes (CDX1, CDX2, CDX4)",hPSCs [1],induced expression
same,"expression of posterior genes HoxB7, HoxC9, HoxA10 and CDX4",hPSCs [1],induced the expression
"FGF2: activator of FGF signaling (R&D, 233-FB/CF)","expression of HOX regulatory genes (CDX1, CDX2, CDX4)",hPSCs [1],induced expression
same,"expression of posterior genes HoxB7, HoxC9, HoxA10 and CDX4",hPSCs [1],induced the expression
"Cc1ccc(C2=CCC(C)(C)c3ccc(C#Cc4ccc(C(=O)O)cc4)cc32)cc1 [AGN, reference compound]",HOXC9 expression,hPSCs [1]; RA 1 μM or AGN 100 nM added to NC protocol,increased
same,sacral HOX gene expression,hPSCs [1]; RA inhibition in GDF11 treated cultures,minimal impact
same,HOXC10 expression,hPSCs [1]; RA inhibition in trunk NC (BMP condition),promoted
B1,levels of H3K4 methyltransferases such as SMYD2,hPSCs [2]; [4],decreased levels
same,levels of H3K27Me3 demethylases JMJD6 and KDM6B,hPSCs [2]; [4],increased levels
same,"gene expression of GRHL1, GRHL2 and GRHL3",hPSCs [2]; following GDF11 exposure,significant decrease
same,chromatin accessibility of GRHL factors,"hPSCs [2]; following GDF11 exposure, ATAC-seq",significant decrease
same,"expression of RA signaling genes CRABP2, CYP26A1 and RBP4",hPSCs [2]; following GDF11 treatment,reduced
same,transition from TNCs to SNCs,hPSCs [1],promoted the transition
same,expression of posterior Hox genes by time of addition,hPSCs [1]; GDF11 added from day 0 to day 3 versus later time points,higher expression
same,expression of stem cell-related factors SOX2 and MYC,hPSCs [1]; GDF11 treated cultures,increased expression
same,expression of the more anterior HOX genes (HOX4-9),hPSCs [1]; [5],without affecting
same,sacral HOX gene expression (HOX10-13),hPSCs [1]; [5],dramatic and selective increase
B2,vagal NC migration,vagal NC,barely affected
same,sacral NC migration,sacral NC; [3],promoted
